Measurements: patent US20240254231A1 (published 2024)

Columns and labels:
canine PD-1 ECD-mFc = target: T1, canine PD-1 ECD-mFc; experiment: SPR; avid
T1 chain: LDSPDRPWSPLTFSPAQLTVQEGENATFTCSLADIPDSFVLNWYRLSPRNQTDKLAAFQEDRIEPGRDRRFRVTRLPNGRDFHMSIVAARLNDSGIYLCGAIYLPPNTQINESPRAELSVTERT

canine PD-1 ECD-6His = target: T2, canine PD-1 ECD-6His; experiment: SPR; monovalent binding
T2 chain: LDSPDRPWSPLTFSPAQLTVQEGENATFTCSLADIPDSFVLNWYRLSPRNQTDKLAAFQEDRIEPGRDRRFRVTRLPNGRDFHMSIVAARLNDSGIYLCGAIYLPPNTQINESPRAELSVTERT

[1] = target: T3, canine PD-1, full-length, membrane-embedded; experiment: flow cytometry; apparent Kd of cell binding
T3 chain: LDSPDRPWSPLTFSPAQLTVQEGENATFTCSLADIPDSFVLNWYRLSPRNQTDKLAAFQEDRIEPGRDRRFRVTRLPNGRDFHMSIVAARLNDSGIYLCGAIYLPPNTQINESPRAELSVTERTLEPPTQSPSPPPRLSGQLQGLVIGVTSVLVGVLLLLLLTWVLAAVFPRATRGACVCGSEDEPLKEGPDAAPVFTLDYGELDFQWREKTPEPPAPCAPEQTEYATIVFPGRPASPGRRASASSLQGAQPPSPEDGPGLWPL

PMX-147 = experiment: flow cytometry; apparent Kd of cell binding
PMX-149 = experiment: flow cytometry; apparent Kd of cell binding
PMX-145 = experiment: flow cytometry; apparent Kd of cell binding
PMX-150 = experiment: flow cytometry; apparent Kd of cell binding

B1: PMX152 (antibody, V domains shown)
VH: EVQLVESGGDLVKPGGSLRLSCVASGFTFSRYYMNWVRQAPGKGPQWVAYINNAGSDRNYVDAVKGRFTISRDNAKNTLYLQMNSLRAEDTAVYYCASEIRGVVVVGHLDYWGQGTLVTVSS
VL: SYVLTQLPSKSVTLNQPAHITCGGDNIGSKSVHWYQQKLGQAPVLIIYYDSIRPTGIPERFSGATSGNTATLTISGALAEDEADYYCQVWDSSAKAWVFGEGTQLTVL
- Kd (canine PD-1 ECD-mFc): 0.0318 nM
- Kd (canine PD-1 ECD-6His): 24.2 nM

B2: PMX151 (antibody, V domains shown)
VH: EVQLVESGGDLVKSGGSLRLSCVASGFTFNTYSMNWVRQAPGKGLQWVARIKSSGSSTTYADAVKGRFTVSRDIAKNTLFLQMNSLRAEDTALYYCASEPGARYEIYFVESFFDYWGQGTLVTVSS
VL: SYVLTQLPSKSVTLKQPAHITCGGDNIGSKSVHWYQQKLGQAPVLIIYYDSSRPTGIPERFSGANSGNTATLTISGALAEDEADYYCQVWDSSAQAWIFGEGTQLTVL
- Kd (canine PD-1 ECD-mFc): 0.0322 nM
- Kd (canine PD-1 ECD-6His): 1.7 nM
- Kd [1]: 2.97 nM

B3: PMX126 (antibody, V domains shown)
VH: EVQLVESGGDLVKPAGSLRLSCLASGFTFSSYSMSWVRQAPEKGLQSVAGINSDGDRTYYTDAVKGRFTISRDNAKSTVYLQMNSLRAEDTAMYYCVRGFSSFNAFGYWGQGTLVTVSS
VL: DIVMTQTPLSLSVSPGETASISCKASQSLLHSDGNTYLSWFRQKPGQSPHRLIYAVSHRHPGVPDRFSGSGSGTDFTLRISRVEADDAGLYYCGQVIQDPWTFGAGTKVELK
- Kd (canine PD-1 ECD-mFc): 0.0297 nM
- Kd (canine PD-1 ECD-6His): 6.8 nM
- Kd [1]: 1.05 nM

B4: PMX125 (antibody, V domains shown)
VH: EVQLVESGGDLVKPGGSLRLSCVASGFSFSRYHMSWVRQAPGKGLQWVAYIISGGITTSYADAVKGRFTISRDNAKNTLFLQMNSLRAEDTAVYYCATYGSYFFDKWGQGTLVTVSS
VL: DIVMTQTPLSLSVSPGETASISCKASQSLLHSDGKSYLNWFRQKPGQSPQRLIYRVSNRDPGVPDRFSGSGSGTDFTLRISRVEADDTGLYYCGQVIQDPTFGAGTKVELK
- Kd (canine PD-1 ECD-mFc): 0.0348 nM
- Kd (canine PD-1 ECD-6His): 7.7 nM
- Kd [1]: 1.07 nM

B5: PMX127 (antibody, V domains shown)
VH: EVQLVESGGDLVKPGGSLRLSCVASGFSFSRYHMSWVRQAPGKGLQWVAYIVSGGISTSYADAVKGRFTISRDNAKNTLFLQMNSLRAEDTAVYYCATYGSYFFDTWGQGTLVTVSS
VL: DIVMTQTPLSLSVSPGETASIFCKASQSLLHSDGKSYLNWFRQKPGQSPQRLIYRVSNRDPGVPDRFSGSGSGTDFTLRISRVEADDTGLYYCGQVIQDPTFGAGTKVELK
- Kd (canine PD-1 ECD-mFc): 0.0024 nM
- Kd (canine PD-1 ECD-6His): 2.2 nM
- Kd [1]: 0.86 nM

B6: PD-1 (receptor)
chain: LDSPDRPWSPLTFSPAQLTVQEGENATFTCSLADIPDSFVLNWYRLSPRNQTDKLAAFQEDRIEPGRDRRFRVTRLPNGRDFHMSIVAARLNDSGIYLCGAIYLPPNTQINESPRAELSVTERTLEPPTQSPSPPPRLSGQLQGLVIGVTSVLVGVLLLLLLTWVLAAVFPRATRGACVCGSEDEPLKEGPDAAPVFTLDYGELDFQWREKTPEPPAPCAPEQTEYATIVFPGRPASPGRRASASSLQGAQPPSPEDGPGLWPL
- Kd (PMX-147): 2.65 nM
- Kd (PMX-149): 8.23 nM
- Kd (PMX-145): 5.75 nM
- Kd (PMX-150): 6.83 nM
